Positions of bridges follow the written chain, without caps; N, C: chain ends. No end group written: not given here. *: point of attachment. Biotin = O=C1N[C@H]2[C@H](CS[C@H]2CCCCC(=O)*)N1

Test [1] addresses protein on the CEM cell surface that binds L1AD3 (L1AD3 protein receptor, 27-35 kDa) (human).
Test [2] has the same target. The source holds these as a separate data set.
Test [3] has the same target. In words: fluorescence spectroscopy, CEM cells in suspension, avidin-FITC.

B1: L1AD3 peptide (…), cyclized (peptide)
peptide: LKCNKLVPLFYKTC
modifications: disulfide 3-14
Consider B1, for which the percent inhibition of binding of biotinylated L1AD3 in test [1] was 50%. Moreover, the percent reduction of binding of biotinylated peptide in test [2] came to 47%.

B2: biotinylated L1AD3 (btn-…), cyclized (peptide)
peptide: Biotin-LKCNKLVPLFYKTC
modifications: disulfide 3-14
The term Kd denotes a measure of binding affinity in units of concentration. A lower Kd goes with tighter binding. B2 returned a Kd in test [2] of 6 µM. The molecule also showed a fluorescence increase over cells not incubated with biotinylated peptide in test [3] of 48%.

Values taken from US20030224997A1.
